Results published in article doi:10.1101/2022.10.04.510906 (bioRxiv, 2022).

Biological target: T1, V/A-ATPase D subunit (Thermus thermophilus, UniProt O87880 1-223)
T1 sequence: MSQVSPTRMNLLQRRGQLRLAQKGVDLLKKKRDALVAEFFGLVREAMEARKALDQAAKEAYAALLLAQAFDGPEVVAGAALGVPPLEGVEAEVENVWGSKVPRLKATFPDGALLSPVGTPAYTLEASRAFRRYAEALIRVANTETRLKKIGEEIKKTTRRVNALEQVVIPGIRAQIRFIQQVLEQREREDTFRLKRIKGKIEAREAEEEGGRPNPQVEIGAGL
Assay: cryo-EM structure

binding result: binds
B1: V/A-ATPase F subunit (natural protein, Thermus thermophilus)
chain: MAVIADPETAQGFRLAGLEGYGASSAEEAQSLLETLVERGGYALVAVDEALLPDPERAVERLMRGRDLPVLLPIAGLKEAFQGHDVEGYMRELVRKTIGFDIKL
